{"source": "a protein production outcome set (Wang et al. 2014)", "data": [{"test": "label from the status in PepcDB records", "values": [{"sequence": "MNKKTIGFFSGIAVFAIIYFLPIAGLSAKGQMDLALSLMTVVWWATQIAQPAFVGGIYLMLLIIMNVATPSQVFSSAWTGSIMWLVIGAYLIAGAVNESGLGQRIAYAFIIKFVRSWKGIVISIFALTFILALLIPHPWPRAFMIMSVITVVAETAKMPKRDLAKLGLAVFAASCPLSGVFYTGDTSLNPLAVQASGQSVNFVSYFIYMGVPMIIAAILTMFLFLFLFKPSQEVHIDVEALKQQQAQLGGMTGKEVRTIIWLIIAIALWLTSGITGLDVGWLTLIVALMMSLPVVGGILTAKSWEGVPVNVLVFLTSAIAIGNVGGVTGMNNWIAKTLIPSNLPTNIYLLAIVITVFAMIIHMFMGSVIAVMGITIPAFVAATAHMGISPLAVSLLVFSVTNLHYILPFHNLAVLVGSDPDTGGGYTQKDVMRLGIPLTAVVFVVALVEMFWFHLVGLA", "protein production": "failed"}, {"sequence": "MNKLILISGLMLFSFFFGAGNLIFPPMLGYTAQENMWVSMTGFAITGILLPYITVIVVAYMNGGVESIGNKVHPIFGTVFAICIYLSIGALYGIPRAANVAYEIGTNHVLPVHNHFTLIIFSLIFFLVVYLIALYPNRIIDNLGKYLTPILIIIIAVLCILVIINPEGSIGQASGEYAQTPIVSGILEGYFTMDLVAALAFSVVIVQMFKMSGVNDHKTLVKNVIKSGLISAILLLIIYFALAYVGATTSHEGFKDGTGILTFNSLRVFGSIGNLLFGVIVILACLTTCIGLVNACAAFAMKKLPKISYKMFVLIFSLLGFLVSTLGLELILQIAVPLLTFIYPTSIVLVLISLVSIFIPFEMKYAFILPTLMTLFISLLQIFNDFNLFQPLISLYKVLPLSDIQLSWLLPFIILLFIGLIIDYFLKNKTVSTS", "protein production": "failed"}, {"sequence": "MNKNQMLLGSFLCLLAVTAWGFMFPVMARALQFIDPFFFTTLRYGSAAIIFLILLLITEGKTSLRLEKRTLSLFFYGTVGFAGYGFLVFYGQQLAGPSGAIHAAMIQSLMPLIALSLQWITQNRRPQNYTFLCMFVALLGVMLVISKGNIELLFGAASHLSTNILMLCGVTCWVIYTNGAARFQSWSPLRYTTLTCLFGSISLIVIVTFLTYTNIVTMPSLRTVVSVRFELFYMSIIAGVIAVFCWNMGNRYISSINGILFMNLVPILALIGSIFRGYTVDKIEIAGAALTIIALLCNNLWQRKVNIKIPTSVR", "protein production": "failed"}, {"sequence": "MNKRLFYYLFAVLCTVTLFTSCSDDDGDDTPTVIPIEQEIAGDYKGTMDVYYVGVPDPIASGLSQKVYVTKASDTAVKLELRDFVFFLGSEELNLGTIAVENCPVTVEGTSYKFSGNQKMTLLVGDCDVAVSGTIGSGNLAMIVDVKVGGGTLQVKVDYKGTKLAGTESTEAKILSFTFDKSVEANAVVFSEPIVNEEDGTIVFEVLKDVTTDDLKKLVPTIEVSAKATVTPASGATVDFSSNKAIFTVVAEDGSSKIYTASISGRAFVVSYDFEEWDPVTHKPMLGNEETFTTPTGWCTSNYGIVEMGMFKPMLGVSGWLVTEESEGHNGKSALLRTINSKGGVGGLIPTITTGSLFLGTWSTNAGNTLNSTKFGNQFNNSLGRPVAVKGWYKYESGKDFYTCESDATDKATIDVSKGEYADQYSIKVSLYTTEEYDETGFSDYLTGESGDNNFYTSSRVVAKGGVEGGSTDGQWKEFTITLDYGDAEFDINQKYRFAIVCSSSKEGDKFWGAPESKLWVDDIEVIYKK", "protein production": "failed"}, {"sequence": "MNKRSIFSNWFITARPKTLPLALASIMVGSALANWVGQFDWVTNLLAIITTMLLQILSNFANDYGDYVKGSDTQERIGPLRAIQQGNITGEQLRQAVIFLSFLSFISGLVLTIYAYQSLQDLLVFVSLGVVSIIAAISYTVGKKAYGYLGLGDLFVLIFFGFVAVIGSFYLQAHSIPIIILLPAFACGLLSVAVLNINNLRDINQDRQAGKNTLIVRIGSDNGRIYHMLLLTLAVICYLIFAIIEGNHWYNYLFLLAVPLLVQHALFVYRYQEPIELRPMLGKMAALALLTNLLFSIGIMLG", "protein production": "failed"}, {"sequence": "MNKSKIAGIMAKLNAVDNQLVEDVAYVRSRDFPNQRFDHQQGYKGSYGNGQTSYSQNSQFQQPLQNNNSFSFTRNFDLASYQDLTAPIPRWNESSLTTSWHAASMESGYEFMKDDESDEFDVAKAVTKQNRAGSTLISRVARHTLIVLTDTTWVSIHNNTNLRKCRRLTEQNRPRLTEQD", "protein production": "failed"}, {"sequence": "MNKVDEIEDFRFEDLEMETEKDKERMMTPTTRMSYSSSSSPSPSSASSSAASSLAAKAIRASSAHRDSSLSSAYSSPSSAPVPTPPKEVNKAYEYTSMKSLNEPKRGFWGSLASKAKAFLDEDDPNQLPQSPKRMEQSIPSATTSGTKEAGQTGRKSENPSLQRRLDAITSSLNYIGGTIGTVVEEGITAVENRTAGIIQETRKKIKKKPSLTRNQQNPEIQADLEIQLKASRDVAMAMAAKAKLLLRELKMVKSDLAFAKQRCAQLEEENKVLRENRSGDSQTDDDDLVRLQLETLLAEKARLAHENSIYTRENLYLRGVVEYHQLTMQDVVYFDEKTEEVTEVYPINVSSMSSSSDNSYNPNPSFLELK", "protein production": "failed"}, {"sequence": "MNKVLINDTTLRDGEQAAGVVFTLEEKVAIAKFLDTIGVPELEVGIPAMGEEEMRAICAISNLGLKANLLAWNRAVISDIKASVACGMERVHIAIPVSGIQIAAKFHGQWRVSLQRLKDCISFAVDQGLWVAVGGEDSSRADENFLLDVALYAQEWGASRFRFCDTVGVLDPFTTYGKVKLLVSALTIPVEVHTHNDFGMATANALAGIKAGASSVNTTVIGLGERAGNAALEEVVMAIKRIYGVDMGIDTPRLLELSQLVAAASGANVPPWKAIVGENTFAHESGIHAHGVLQNPDTYEPFAPEEVGWERRLVVGKHSGRHSVSNLLEQHGIFLNPEETQSVLDAVRQQSIKKLEHHHHHH", "protein production": "failed"}, {"sequence": "MNKWVITSLFAISTLSASVASALEVRYMATPQQSTWQMATNTPLECRLVHPIPNYGDAEFSSRAGKKINLDFELKMRRPMGDTRNVSLVSMPPVWRPGEGADRITNLQFFKQFDGYIGGQTAWSLLSELEKGRYPTFSYQDWQSRDQRIEVALSSVLFQQPYNEFSDCISKLLPYSFEDISFTILHYDQGTSVELNKASQKRLAQIAEYVRYNQDIDLVLVSTYTDSTDTNNNSQNLSEQRAEVLREYFKSIGLPEDRIQVQGYGKRRPIADNASPIGKDKNRRVVISLGRTQV", "protein production": "failed"}, {"sequence": "MNLDLGSTVRGYESDKDTFPQSKGVSSSQKEQHSQLNQTKIAYEQRLLNDLEDMDDPLDLFLDYMIWISTSYIEVDSESGQEVLRSTMERCLIYIQDMETYRNDPRFLKIWIWYINLFLSNNFHESENTFKYMFNKGIGTKLSLFYEEFSKLLENAQFFLEAKVLLELGAENNCRPYNRLLRSLSNYEDRLREMNIVENQNSVPDSRERLKGRLIYRTAPFFIRKFLTSSLMTDDKENRANLNSNVGVGKSAPNVYQDSIVVADFKSETERLNLNSSKQPSNQRLKNGNKKTSIYADQKQSNNPVYKLINTPGRKPERIVFNFNLIYPENDEEFNTEEILAMIKGLYKVQRRGKKHTEDYTSDKNRKKRKLDVLVERRQDLPSSQPPVVPKSTRIEVFKDDDNPSQSTHHKNTQVQVQTTTSILPLKPVVDGNLAHETPVKPSLTSNASRSPTVTAFSKDAINEVFSMFNQHYSTPGALLDGDDTTTSKFNVFENFTQEFTAKNIEDLTEVKDPKQETVSQQTTSTNETNDRYERLSNSSTRPEKADYMTPIKETTETDVVPIIQTPKEQIRTEDKKSGDNTETQTQLTSTTIQSSPFLTQPEPQAEKLLQTAEHSEKSKEHYPTIIPPFTKIKNQPPVIIENPLSNNLRAKFLSEISPPLFQYNTFYNYNQELKMSSLLKKIHRVSRNENKNPIVDFKKTGDLYCIRGELGEGGYATVYLAESSQGHLRALKVEKPASVWEYYIMSQVEFRLRKSTILKSIINASALHLFLDESYLVLNYASQGTVLDLINLQREKAIDGNGIMDEYLCMFITVELMKVLEKIHEVGIIHGDLKPDNCMIRLEKPGEPLGAHYMRNGEDGWENKGIYLIDFGRSFDMTLLPPGTKFKSNWKADQQDCWEMRAGKPWSYEADYYGLAGVIHSMLFGKFIETIQLQNGRCKLKNPFKRYWKKEIWGVIFDLLLNSGQASNQALPMTEKIVEIRNLIESHLEQHAENHLRNVILSIEEELSHFQYKGKPSRRF", "protein production": "failed"}, {"sequence": "MNLFAPPALFRHFHRMAWLAALFTASTILFGSFVRLSDAGMSCPDWPTCYGRVTWPQTSDEANTHVASKIRPLESHKAWREQVHRFLAGALGVEVLVLSLLAVRRRRMGIAQVVSAAVLVALSIPLYMSGWHATAFGMAITGEAILLLAALRWSNIDLARAAVLTLAVVIFQALLGMWTVTLLLKPIVVMGHLLGGMLMFSLLVWMAWRATHLPITLADASRLKWLLRLGVAVLGLQIALGGWVSANYAALACGGGSWSADNFPRCVSQWWPPHDFREGFTLWRGIGVDYEGGVLDGAARIAIQMAHRLWAIATALYLWWLAWRLSRSPGMRVWAGALALLVAVQVTLGMLNVKLALPLEVSLMHNGGAVALLFVLVSLLARLRAPE", "protein production": "failed"}, {"sequence": "MNLFVLLFVFVFGIIGSYSSKFSEKNLFWLFVIVLAIIIGGRSISVPDTDQYLEFYQLTLSSSILDIPLYSYEIGFQLLTKILKLITNGSSFFYFGIIVLINSYFLFKSFSCFTDQSYPSKKSSGTLINQIKLQEFLLLYFSYWGLYYTGIVLRAGIAMSILIYLSTLLCSPYISLKKWSAIFLLAIISCSFHITALLGIIALIIFYISKKMTMRSYLLLFLLICIILFGKVSFWIVDMLDRNMPMIFSLIEDTDFAKLQAYSNIDASIKISFRFLFCLLIGLFFIICKRMPLYYYKYLNVYIVGLFLGALFSAIEAFSRIMDFFVIYSFILISMRLSTINSFKIRFSIMFSIVLIQLLFVYRIIIGL", "protein production": "failed"}, {"sequence": "MNLGILLGFLIYLVLLAYIGWWANRYTKTEEQYFIGGRKVHVLAATLSDKASDFSGWLMLGYPGTAFKTGLGAFWAAIGCLFGTLADYLLIGPRLRIYAGKFRSITLPDYLEARLKDNTKLIRILSAAIILIFMTAYVAAQFAAGGKTFSEAFGVSVTTGILITVIILTAYVITGGFFAVVWTDVVQAMFMLLTLIIMPILALAEIGGLDKATQIIGSVNPAKLHPFGGATGLAAIVFAIGYASWIVGYLGQPHIVTRYMSVEDPRKLRRPGIFISGIWTTIVLWGAFFAGFLGFALAINGSIKIDDPEKIVPAMAVHFLPSWIAGFVIAGIISAVMSTADSQLLVASSAIARDIYHKVLGQELGKKQMVNISRVVVAIVSLIAMWFAISGPKVIYQMVATAWGGLAVGFGPILTLSLWWKRVTKEAGIIGMGYGLISEVLLEAKIYGWAFNPNAPGFFGTLGKWFNGVPVFFINFFITLLVIIIVSLLTKPPEDVVKLHKELFKKVPIEKSEKIKVARAKSQAENVFDFAIASGLL", "protein production": "failed"}, {"sequence": "MNLILYLVTVFVALFAMVNPIGALPVLVSVTEGYSKDDFERVVRYAAMSEALMLFSFMLIGIYIFEVLGININDFKVAGGVLLFKVAFDMLQGRTSTTKLTPAETEESIERTSIGIAPIGTPLLAGPGSITAAIIYFNSYSVNIPEKIAVVISVSLVVVISYFILHYSSVLFKYLGKTGSLIISRIMGLLLAAIAVDFMVTGLAFIVKSITGV", "protein production": "failed"}, {"sequence": "MNLKDLLAHRENLMDSAKRARSAITDDMDPADAAQAVENVKSIISEIESTDEAIAARRGVSDVTQKLKGLTITERGTENDSAASRSLGEHFVKAAGDRLKNQAAGAHIEYSVPEYQVKEDAHSSPKDLVEGWGTFYQRGIINQRRERLVAADLMGAATVTASTVKYIVEKANRIASGAPATVAEGTKKPYVKYADFDVVTESLSKVAALAKFTDEMIEDYDFVASWINNNLVYDLSVVEEKQLINGDGRGSNIKGLLNREGIQTHKSAKQADWFNDLFKAKNKVSQATNLEADGIMINPVNYEALRLTKDGNGQYIAGGPFQGQYGNGNILIDPPLWGIKTVVSNAVPAGTAIVGAFRQGATVLRKGGVRVDSANTNADDFENNLVTLRAEERLGLMVPLPAAFVKVTLEETTEEL", "protein production": "not failed"}, {"sequence": "MNLKQIAKDTAKTLQSYLTYQALMTVLAQLGETNPPLALWLHTFSVGKVQDGEAYVKELFREQPDLALRIMTVREHIAEEVAEFLPEMVRSGIQQANMEQRRQHLERMTHLSLSNPSPESEQQTISDTDWDH", "protein production": "failed"}]}]}
